In US20200181263A1 (NUMAB THERAPEUTICS, published 2020):

T1: cyno CD3 (cyno, UniProt Q95LI5 22-117)
T1 sequence (looked up): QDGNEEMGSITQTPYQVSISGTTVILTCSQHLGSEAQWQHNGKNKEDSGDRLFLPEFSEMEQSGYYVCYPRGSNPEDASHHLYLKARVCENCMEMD

T2: human IL-23 receptor ECD (human, UniProt Q5VWK5 24-355)
T2 construct: extracellular domain
T2 sequence (looked up): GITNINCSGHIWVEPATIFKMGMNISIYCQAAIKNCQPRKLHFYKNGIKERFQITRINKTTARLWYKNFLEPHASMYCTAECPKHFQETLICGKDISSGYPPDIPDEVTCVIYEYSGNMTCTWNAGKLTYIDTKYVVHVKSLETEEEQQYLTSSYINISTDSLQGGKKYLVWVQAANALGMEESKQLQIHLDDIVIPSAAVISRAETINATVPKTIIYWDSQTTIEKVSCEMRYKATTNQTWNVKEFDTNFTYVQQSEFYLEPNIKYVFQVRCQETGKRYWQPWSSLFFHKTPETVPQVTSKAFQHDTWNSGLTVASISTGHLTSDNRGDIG

B1: PRO746 (MATCH) (other)
chain 1: DIQMTQSPSSLSASVGDRVTITCQASENIYSFLAWYQQKPGKAPKLLIYSASKLAAGVPSRFSGSGSGTDFTLTISSLQPEDFATYYCQQTNRYSNPDIYNVFGTGTKVTVLGGGGGSGGGGSGGGGSGGGGSEVQLVESGGGLVQPGGSLRLSCAASGIDFNSNYYMCWVRQAPGKGLEWIGCIYVGSHVNTYYANWAKGRFTISRDNSKNTVYLQMNSLRAEDTAVYYCATSGSSVLYFKFWGQGTLVTVSSGGGGSGGGGSDIQMTQSPSSLSASVGDRVTITCQSSQSVFSNNYLAWFQQKPGQSPKRLIYSASTLASGVPSRFSGSGSGTDFTLTISSLQPEDFATYYCLGSYACSSADCYVFGCGTKVTVLGEPEPEPEPEPEPEPDIQMTQSPSSLSASVGDRVTITCQSSESVYSNNQLSWYQQKPGQPPKLLIYDASDLASGVPSRFSGSGSGTDFTLTISSLQPEDFATYYCAGGFSSSSDTAFGGGTKLTVLG
chain 2: DIQMTQSPSSLSASVGDRVTITCQASENIYSFLAWYQQKPGKAPKLLIYSASKLAAGVPSRFSGSGSGTDFTLTISSLQPEDFATYYCQQTNRYSNPDIYNVFGTGTKVTVLGGGGGSGGGGSGGGGSGGGGSEVQLVESGGGLVQPGGSLRLSCAASGIDFNSNYYMCWVRQAPGKGLEWIGCIYVGSHVNTYYANWAKGRFTISRDNSKNTVYLQMNSLRAEDTAVYYCATSGSSVLYFKFWGQGTLVTVSSGGGGSGGGGSEVQLVESGGGLVQPGGSLRLSCAASGFSLSSNAMGWVRQAPGKGLEYIGIISVGGFTYYASWAKGRFTISRDNSKNTVYLQMNSLRAEDTATYFCARDRHGGDSSGAFYLWGQGTLVTVSSKPKPKPKPKPKPKPEVQLVESGGGLVQPGGSLRLSCAASGFSLSSYDMSWVRQAPGKCLAWIGASYASGPTYYASWAKGRFTISRDNSKNTVYLQMNSLRAEDTATYFCARGGWTGTSHSNIWGQGTLVTVSS
notes: Hetero-dimeric MATCH, anti-parallel, two anti-IL23R scFv modules on a CD3/HSA core; interchain disulfide in the anti-CD3 VL/VH interface; charged core linkers; also called MATCH-4 anti-TAA2xCD3xHSA; heterodimeric MATCH
B2: PRO734 (other)
chain 1: DIQMTQSPSSLSASVGDRVTITCQASENIYSFLAWYQQKPGKAPKLLIYSASKLAAGVPSRFSGSGSGTDFTLTISSLQPEDFATYYCQQTNRYSNPDIYNVFGTGTKVTVLGGGGGSGGGGSGGGGSGGGGSEVQLVESGGGLVQPGGSLRLSCAASGIDFNSNYYMCWVRQAPGKGLEWIGCIYVGSHVNTYYANWAKGRFTISRDNSKNTVYLQMNSLRAEDTAVYYCATSGSSVLYFKFWGQGTLVTVSSGGGGSGGGGSDIQMTQSPSSLSASVGDRVTITCQSSQSVFSNNYLAWFQQKPGQSPKRLIYSASTLASGVPSRFSGSGSGTDFTLTISSLQPEDFATYYCLGSYACSSADCYVFGCGTKVTVLGSGGGGSGGGGSDIQMTQSPSSLSASVGDRVTITCQSSESVYSNNQLSWYQQKPGQPPKLLIYDASDLASGVPSRFSGSGSGTDFTLTISSLQPEDFATYYCAGGFSSSSDTAFGGGTKLTVLG
chain 2: DIQMTQSPSSLSASVGDRVTITCQASENIYSFLAWYQQKPGKAPKLLIYSASKLAAGVPSRFSGSGSGTDFTLTISSLQPEDFATYYCQQTNRYSNPDIYNVFGTGTKVTVLGGGGGSGGGGSGGGGSGGGGSEVQLVESGGGLVQPGGSLRLSCAASGIDFNSNYYMCWVRQAPGKGLEWIGCIYVGSHVNTYYANWAKGRFTISRDNSKNTVYLQMNSLRAEDTAVYYCATSGSSVLYFKFWGQGTLVTVSSGGGGSGGGGSEVQLVESGGGLVQPGGSLRLSCAASGFSLSSNAMGWVRQAPGKGLEYIGIISVGGFTYYASWAKGRFTISRDNSKNTVYLQMNSLRAEDTATYFCARDRHGGDSSGAFYLWGQGTLVTVSSSGGGGSGGGGSEVQLVESGGGLVQPGGSLRLSCAASGFSLSSYDMSWVRQAPGKCLAWIGASYASGPTYYASWAKGRFTISRDNSKNTVYLQMNSLRAEDTATYFCARGGWTGTSHSNIWGQGTLVTVSS
notes: Hetero-dimeric MATCH, anti-parallel; diS in anti-CD3 domain, 11 aa GS-linker
B3: PRO738 (other)
chain 1: DIQMTQSPSSLSASVGDRVTITCQASENIYSFLAWYQQKPGKAPKLLIYSASKLAAGVPSRFSGSGSGTDFTLTISSLQPEDFATYYCQQTNRYSNPDIYNVFGTGTKVTVLGGGGGSGGGGSGGGGSGGGGSEVQLVESGGGLVQPGGSLRLSCAASGIDFNSNYYMCWVRQAPGKGLEWIGCIYVGSHVNTYYANWAKGRFTISRDNSKNTVYLQMNSLRAEDTAVYYCATSGSSVLYFKFWGQGTLVTVSSGGGGSGGGGSDIQMTQSPSSLSASVGDRVTITCQSSQSVFSNNYLAWFQQKPGQSPKRLIYSASTLASGVPSRFSGSGSGTDFTLTISSLQPEDFATYYCLGSYACSSADCYVFGCGTKVTVLGGGGGSGGGGSGGGGSDIQMTQSPSSLSASVGDRVTITCQSSESVYSNNQLSWYQQKPGQPPKLLIYDASDLASGVPSRFSGSGSGTDFTLTISSLQPEDFATYYCAGGFSSSSDTAFGGGTKLTVLG
chain 2: DIQMTQSPSSLSASVGDRVTITCQASENIYSFLAWYQQKPGKAPKLLIYSASKLAAGVPSRFSGSGSGTDFTLTISSLQPEDFATYYCQQTNRYSNPDIYNVFGTGTKVTVLGGGGGSGGGGSGGGGSGGGGSEVQLVESGGGLVQPGGSLRLSCAASGIDFNSNYYMCWVRQAPGKGLEWIGCIYVGSHVNTYYANWAKGRFTISRDNSKNTVYLQMNSLRAEDTAVYYCATSGSSVLYFKFWGQGTLVTVSSGGGGSGGGGSEVQLVESGGGLVQPGGSLRLSCAASGFSLSSNAMGWVRQAPGKGLEYIGIISVGGFTYYASWAKGRFTISRDNSKNTVYLQMNSLRAEDTATYFCARDRHGGDSSGAFYLWGQGTLVTVSSGGGGSGGGGSGGGGSEVQLVESGGGLVQPGGSLRLSCAASGFSLSSYDMSWVRQAPGKCLAWIGASYASGPTYYASWAKGRFTISRDNSKNTVYLQMNSLRAEDTATYFCARGGWTGTSHSNIWGQGTLVTVSS
notes: Hetero-dimeric MATCH, anti-parallel; diS in anti-CD3 domain, 15 aa GS-linker

How the values were obtained:
[1] = target: T3, human IL23R IL12Rbeta 1 heterodimer on CHO-K1 cells (human, UniProt Q5VWK5 24-629; P42701 24-662); assay: cell-based or functional assay
[2] = target: T3, human IL23R IL12Rbeta 1 heterodimer on …; assay: cell-based or functional assay; remark: listed apart in the source
[3] = target: T4, human CD3 gamma-epsilon single-chain (human, UniProt P09693 23-103; P07766 23-118); assay: SPR, target immobilised by amine coupling, binder as analyte
T4 construct: Recombinant protein immobilised on the SPR chip

cyno CD3 = target: T1, cyno CD3; assay: as above
human serum albumin = target: T5, human serum albumin (human, UniProt P02768 25-609); assay: as above
T5 construct: also called HSA

human IL-23 receptor ECD = target: T2, human IL-23 receptor ECD; assay: as above

| Binder | NFAT assay EC50 (T-cell activation, 5 h) [1] [nM] | EC50 of T-cell activation (NFAT reporter, with HSA), 5 h [2] [nM] | EC50 of T-cell activation (NFAT reporter, with HSA), 30 h [2] [nM] | Kd [3] [nM] | Kd (cyno CD3) [nM] | Kd (human serum albumin) [nM] | Kd (human IL-23 receptor ECD) [nM] |
| --- | --- | --- | --- | --- | --- | --- | --- |
| B1 | 0.19 | 266000 | 102000 | 3.52 | 3.19 | 0.141 | 0.0249 |
| B2 | 46.8 |  |  | 11.9 | 10.2 | 0.482 | 0.036 |
| B3 | 0.423 |  |  | 10.1 | 8.48 | 0.303 | 0.0337 |
